The numbers were not newly measured in publication PMC12851578, which cites them from elsewhere.

By Kd is commonly meant the concentration at which binding is half-saturated.

The target in the data set is F-actin (Oryctolagus cuniculus) (UniProt P68135). As to conditions: cited from earlier work.

For the substance LifeAct (from UniProt Q08641), the Kd was 2200 nM.
